Among the data in US20250296971A1, “GASTRIC INHIBITORY PEPTIDE RECEPTOR LIGANDS” (priority 2021, published 2025) are pIC50, pKD and t1/2 values, retold here.

The target in test [1] is human Gastric Inhibitory Peptide Receptor (human) (UniProt P48546). The test can be described thus: FACS competition with GIP-057 on CHO-K1-hGIPR cells; pIC50 category B: 7.1-8.0.
For test [2], the target named is biotinylated extracellular domain of the human GIP receptor (bioGIPR) (human) (UniProt P48546). Nature of the test: SPR single cycle kinetics, bioGIPR captured on chip; category B: pKD 8.1-9.0.
Sequence of biotinylated extracellular domain of the human GIP receptor (bioGIPR) (human) (P48546 24-138 limits assumed): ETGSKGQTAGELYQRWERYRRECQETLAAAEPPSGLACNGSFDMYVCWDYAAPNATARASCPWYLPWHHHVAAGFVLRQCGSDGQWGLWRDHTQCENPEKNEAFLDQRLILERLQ
The target is the same in test [3]. The test can be described thus: SPR single cycle kinetics, bioGIPR captured on chip; category D: t1/2 <2.0 min.
Test [4] has as its target human gastric inhibitory polypeptide receptor (human GIPR) (human) (UniProt P48546). Nature of the test: radioligand binding assay, 111In-labeled compound on CHO cells expressing GIPR, 6 h 37 °C; pKD category A = pKD > 9.5.
The target in a further test is dog GIPR (dog). Nature of the test: radioligand binding assay, 111In-labeled compound on CHO-VGT cells expressing dog GIPR, 6 h 37 °C; pKD category A = pKD > 9.5.
Sequence of dog GIPR (dog) (chain, as listed by the source limits assumed, form in doubt): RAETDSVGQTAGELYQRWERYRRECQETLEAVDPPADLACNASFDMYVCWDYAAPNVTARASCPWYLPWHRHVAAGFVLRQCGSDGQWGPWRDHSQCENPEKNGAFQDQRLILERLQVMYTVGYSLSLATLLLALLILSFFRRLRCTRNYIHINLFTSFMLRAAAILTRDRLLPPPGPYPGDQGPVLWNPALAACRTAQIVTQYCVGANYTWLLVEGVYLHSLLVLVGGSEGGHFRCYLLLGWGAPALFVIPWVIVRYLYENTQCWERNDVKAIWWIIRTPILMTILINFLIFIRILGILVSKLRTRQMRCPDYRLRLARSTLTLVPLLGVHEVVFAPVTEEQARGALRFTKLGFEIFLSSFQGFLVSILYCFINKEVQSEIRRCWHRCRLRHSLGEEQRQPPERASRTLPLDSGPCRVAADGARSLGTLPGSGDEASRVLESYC
Another test addresses rat GIPR (rat) (UniProt P43219). The test can be described thus: radioligand binding assay, 111In-labeled compound on CHO-VGT cells expressing rat GIPR, 6 h 37 °C; pKD category B = pKD between 9.0 and 9.5.
The target of a further test is mouse GIPR (mouse) (UniProt Q0P543). The test can be described thus: radioligand binding assay, 111In-labeled compound on CHO-VGT cells expressing mouse GIPR, 6 h 37 °C; pKD category C = pKD < 9.0.
Sequence of mouse GIPR (mouse) (Q0P543 19-460): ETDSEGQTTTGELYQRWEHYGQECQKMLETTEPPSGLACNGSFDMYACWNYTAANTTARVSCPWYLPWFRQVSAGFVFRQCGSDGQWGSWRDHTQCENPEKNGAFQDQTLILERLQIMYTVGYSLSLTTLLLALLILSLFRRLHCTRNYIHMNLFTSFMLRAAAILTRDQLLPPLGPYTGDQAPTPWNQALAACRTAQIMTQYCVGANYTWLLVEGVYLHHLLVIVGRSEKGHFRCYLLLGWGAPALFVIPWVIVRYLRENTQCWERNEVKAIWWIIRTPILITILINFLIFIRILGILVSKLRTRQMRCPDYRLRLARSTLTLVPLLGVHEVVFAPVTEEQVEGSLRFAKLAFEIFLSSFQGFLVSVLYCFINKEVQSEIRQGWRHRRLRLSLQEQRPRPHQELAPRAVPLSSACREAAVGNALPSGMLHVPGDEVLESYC
For test [5], the target named is human Gastric Inhibitory Peptide Receptor (GIPR) (human) (UniProt P48546). The test can be described thus: FACS competition vs biotinylated GIP-057 on CHO-K1-hGIPR cells; category B: pIC50 7.1-8.0.
The target in test [6] is biotinylated extracellular domain of the human GIP receptor (bioGIPR) (human) (UniProt P48546). Nature of the test: SPR single cycle kinetics, bioGIPR captured on chip; category C: t1/2 5-2.1 min.

*1 amine or outer side, *2 acyl side, *3 side chain or, on linkers, in order; H or OH if unused. Bridges are numbered along the chain shown (N, C = ends). Where no end group is shown, it is not given here. [ ]: non-standard residue; d: D form. The star is where a group is joined. Ttds = 1,13-diamino-4,7,10-trioxatridecan-succinamic acid, NCCCOCCOCCOCCCNC(=O)CCC(=O)*; dE(AGLU) = D-glutamic acid bearing 1-amino-1-deoxy-D-glucitol; Pro(trans-4-NH2) = O=C([C@@H]1C[C@@H](N[*:3])CN1[*:1])[*:2]; DOTA = O=C(O)CN1CCN(CC(=O)O)CCN(CC(=O)*)CCN(CC(=O)O)CC1; Trp(5-Cl) = N[C@@H](Cc1c[nH]c2ccc(Cl)cc12)C(=O)O; Pyridine(2,6-diCH2) = c1cc(C[*:1])nc(C[*:2])c1; APAc = 4-amino-1-carboxymethylpiperidine; Ethylenediamine = C(CN[*:2])N[*:1]; Glutaryl = O=C(CCCC(=O)[*:2])[*:1]; AGLU = 1-amino-1-deoxy-D-glucitol; Hyp = O=C(O)[C@@H]1C[C@@H](O)CN1; dGlu(AGLU) = not defined here; hSer = N[C@@H](CCO)C(=O)O; 3CbBn = 3-carboxybenzyl; Api = NC1(C(=O)O)CCNCC1; Aib = CC(C)(N)C(=O)O

Sequence of human gastric inhibitory polypeptide receptor (human GIPR) (human) (P48546 22-466 limits assumed): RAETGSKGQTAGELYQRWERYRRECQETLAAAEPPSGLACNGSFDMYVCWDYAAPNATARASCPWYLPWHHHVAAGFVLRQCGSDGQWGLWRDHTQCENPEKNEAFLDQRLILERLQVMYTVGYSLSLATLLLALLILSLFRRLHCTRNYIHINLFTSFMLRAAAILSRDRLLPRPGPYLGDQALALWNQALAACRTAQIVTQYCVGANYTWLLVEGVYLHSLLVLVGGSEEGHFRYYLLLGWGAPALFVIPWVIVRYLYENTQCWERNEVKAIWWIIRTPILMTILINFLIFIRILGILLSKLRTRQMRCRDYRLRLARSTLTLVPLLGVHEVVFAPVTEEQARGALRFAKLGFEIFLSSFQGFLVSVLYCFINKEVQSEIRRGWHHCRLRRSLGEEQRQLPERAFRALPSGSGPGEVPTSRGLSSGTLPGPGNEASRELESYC
Sequence of human Gastric Inhibitory Peptide Receptor (human) (P48546 22-466 limits assumed): as above
Sequence of rat GIPR (rat) (P43219 19-455): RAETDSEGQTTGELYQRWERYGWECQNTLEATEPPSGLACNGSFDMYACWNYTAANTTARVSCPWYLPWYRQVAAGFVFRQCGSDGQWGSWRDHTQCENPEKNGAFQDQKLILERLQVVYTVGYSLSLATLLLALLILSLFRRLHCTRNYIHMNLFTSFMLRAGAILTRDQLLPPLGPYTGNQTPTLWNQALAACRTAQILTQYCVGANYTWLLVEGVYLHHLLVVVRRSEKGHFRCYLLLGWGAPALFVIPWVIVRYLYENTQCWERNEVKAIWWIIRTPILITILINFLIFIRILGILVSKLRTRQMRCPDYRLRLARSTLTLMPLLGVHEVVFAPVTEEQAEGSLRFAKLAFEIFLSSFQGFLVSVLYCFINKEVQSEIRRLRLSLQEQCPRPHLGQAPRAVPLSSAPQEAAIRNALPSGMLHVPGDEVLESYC

B1: AGLU-Glutar-APAc-Ser-Trp-5Clw-Tap(AGLU-Glutar)-Hse-leu-[Cys(2Lut)-Apc(DOTA)-Leu-Ile-Cys]-APAc-glu(AGLU)-NH2 (peptide)
peptide: SWXXXXCXLIC
modifications: N-term AGLU-Glutar-APAc; 5Clw; Tap(AGLU-Glutar); Hse; leu (D-Leu); thioether cycle [Cys(2Lut)..Cys]; Apc(DOTA); C-term APAc-glu(AGLU)-NH2
In test [1], B1 returned a pIC50 of 7.1 to 8 pic50. Further, in [2], the pKD was 8.1 to 9 pkd. In addition, the t1/2 in test [3] was less than 2 min.

Take {AGLU-Glutaryl}-DW[Trp(5-Cl)][Pro(trans-4-NH2)]E[dL]C[Api](DOTA)LIC-{APAc-dE(AGLU)-NH2} (linker 7-11 via Pyridine(2,6-diCH2); also: DOTA complexed with 111In): the pKD was greater than 9.5 pkd in [4], greater than 9.5 pkd with dog GIPR (dog), 9 to 9.5 pkd with rat GIPR (rat) and less than 9 pkd in the test with mouse GIPR (mouse).

B2: DOTA-Ttds-Asp-Trp-5Clw-Pro-Glu-leu-[Cys(3CbBn)-Aib-Leu-Ile-en] (peptide)
peptide: {DOTA-Ttds}-DW[Trp(5-Cl)]PE[dL]C[Aib]LI[Ethylenediamine]
modifications: bridge (positions not given here) via 3CbBn; not fully specified (bridges); printed as DOTA-Ttds-Asp-Trp-5Clw-Pro-Glu-leu-[Cys(3CbBn)-Aib-Leu-Ile-en]
Turning to B2, the pKD in test [2] was 8.1 to 9 pkd. Also, the pIC50 in [5] lay within 7.1 to 8 pic50. The t1/2 in test [6] lay in the range of 2.1 to 5 min.

B3: 111In-labeled AGLU-Glutar-Asp-Trp-5Clw-Hyp-Glu-leu-[Cys(2Lut)-Apc(DOTA)-Leu-Ile-Cys]-APAc-glu(AGLU)-NH2 (111In-GIP-002) (peptide)
peptide: {AGLU-Glutaryl}-DW[Trp(5-Cl)][Hyp]E[dL]C[Api](DOTA)LIC-{APAc-dGlu(AGLU)-NH2}
modifications: linker 7-11 via Pyridine(2,6-diCH2); reading uncertain; also: DOTA complexed with 111In
In test [4], B3 had a pKD greater than 9.5 pkd.

{AGLU-Glutaryl-APAc}-[hSer]W[Trp(5-Cl)][Hyp]E[dL]C[Api](DOTA)LIC-{APAc-dE(AGLU)-NH2} (linker 7-11 via Pyridine(2,6-diCH2)) [AGLU-Glutar-APAc-Hse-Trp-5Clw-Hyp-Glu-leu-[Cys(2Lut)-Apc(DOTA)-Leu-Ile-Cys]-APAc-glu(AGLU)-NH2] displayed a pIC50 in [1] of 7.1 to 8 pic50. In test [2], this molecule returned a pKD of 8.1 to 9 pkd. The t1/2 in test [3] is less than 2 min.
